Assay [1] addresses T1, Human IL22 (human, UniProt Q9GZX6 34-179).
T1 construct: IL22 of the Biacore and cell assays
T1 sequence: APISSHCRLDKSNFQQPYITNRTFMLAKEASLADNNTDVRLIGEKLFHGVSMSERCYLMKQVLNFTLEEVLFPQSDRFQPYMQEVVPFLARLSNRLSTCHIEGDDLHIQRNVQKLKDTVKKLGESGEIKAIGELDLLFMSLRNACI
As to the kind of experiment: SPR (Biacore); Fab variant, human IL22. Background: Surface plasmon resonance follows binding to a sensor surface in real time, without labels.

The target in assay [2] is T1, Human IL22. As to the kind of experiment: SPR Biacore 8K; Fab captured on anti-human F(ab')2, human IL22 titrated 617 pM-50 nM; single experiment.
Method: The assay was run on Biacore 8K instrument (GE Healthcare) and BIA (Biomolecular Interaction Analysis) was performed using Biacore 8000 evaluation software Affinipure Goat anti-human IgG-F(ab′)2 fragment specific (Jackson ImmunoResearch) was immobilized on a CM5 Sensor Chip via amine coupling chemistry to a capture level of ˜5000 response units (RUs). HBS-EP+ buffer (10 mM HEPES pH 7.4, 0.15 M NaCl, 3 mM EDTA, 0.05% Surfactant P20, GE Healthcare) was used as the running buffer with a flow rate of 10 μL/min.
The surface was generated by 2×10 μL injections of 50 mM HCl, interspersed by a 5 μL injection of 5 mM NaOH at flowrate of 10 μL/min. Background subtraction binding curves were analyzed using the Insight evaluation software following standard procedures. Kinetic parameters were determined from the fitting algorithm.
Assay [3] deals with T1, Human IL22. As to the kind of experiment: SPR.
The target of assay [4] is T1, Human IL22. The assay is described as follows: SPR (Biacore); human IL22.
The target of assay [5] is T1, Human IL22. The assay is described as follows: cell-based or functional assay.
In assay [6] the target is T1, Human IL22. As to the kind of experiment: cell-based or functional assay. This is another data set of the same source.
Assay [7] has as its target T2, Human IL13 (human, UniProt P35225 35-146, limits assumed). As to the kind of experiment: cell-based or functional assay.
Assay [8] concerns the target T2, Human IL13. As to the kind of experiment: cell-based or functional assay. The source holds these as a separate data set.
For assay [9], the target named is T2, Human IL13. As to the kind of experiment: cell-based or functional assay. This is another data set of the same source.
For assay [10], the target named is T1, Human IL22. The assay is described as follows: cell-based or functional assay. This is another data set of the same source.
In assay [11] the target is T1, Human IL22. The assay is described as follows: cell-based or functional assay. This is another data set of the same source.
Assay [12] concerns the target T2, Human IL13. The assay is described as follows: cell-based or functional assay. The source holds these as a separate data set.
The target in assay [13] is T2, Human IL13. The assay is described as follows: cell-based or functional assay. This is another data set of the same source.
Assay [14] has as its target T1, Human IL22. As to the kind of experiment: SPR Biacore T200; Fab captured on anti-rabbit F(ab')2, IL22 titrated 0.6-50 nM.
Method: (§1) HBS-EP+ buffer (10 mM HEPES pH 7.4, 0.15 M NaCl, 3 mM EDTA, 0.05% Surfactant P20, GE Healthcare) was used as the running buffer with a flow rate of 10 μL/min.
(§2) The surface was generated by 2×10 μL injection of 50 mM HCl, interspersed by a 10 μL injection of 5 mM NaOH at flowrate of 10 μL/min. Background subtraction binding curves were analyzed using the Biacore T200 evaluation software following standard procedures. Kinetic parameters were determined from the fitting algorithm.
Assay [15] addresses T3, Cynomolgus IL22 (cynomolgus, UniProt G7PHZ7 34-179).
T3 construct: also called Cyno IL22; Cyno IL-22
T3 sequence: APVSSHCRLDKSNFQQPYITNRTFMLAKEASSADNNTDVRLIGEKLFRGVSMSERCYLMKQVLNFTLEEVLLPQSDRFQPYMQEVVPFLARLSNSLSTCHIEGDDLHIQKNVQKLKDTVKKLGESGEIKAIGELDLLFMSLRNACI
Described as above.
Method: as §1, §2

For assay [16], the target named is T4, Mouse IL22 (mouse, UniProt Q9JJY9 34-179).
T4 sequence (looked up): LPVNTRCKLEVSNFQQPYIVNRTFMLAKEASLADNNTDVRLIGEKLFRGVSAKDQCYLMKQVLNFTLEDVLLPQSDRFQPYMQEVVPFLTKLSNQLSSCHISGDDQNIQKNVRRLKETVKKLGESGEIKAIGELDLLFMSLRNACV
The assay is described as above.
Method: as §1, §2

Assay [17] has as its target T1, Human IL22. The assay is described as follows: SPR (Biacore); human IL22. This is another data set of the same source.

“And” between values parts separate entries of the source, which are not always exact repeats. Equal entries are not always repeated.

B1: 11041gL13gH14 Fab (Fab, V domains shown)
VH: EVQLVESGGGLVQPGGSLRLSCAVSGFSLSSYAMIWVRQAPGKGLEWIGIIDIEGSTYYASWAKGRFTISRDNSKNTVYLQMNSLRAEDTAVYYCARDRFVGVDIFDPWGQGTLVTVSS
VL: AVQLTQSPSSLSASVGDRVTITCQASEDIYTNLAWYQQKPGKAPKLLIYWASTLASGVPSRFSGSGSGTDFTLTISSLQPEDFATYYCQASVYGNAADSRYTFGGGTKVEIKR
notes: also called 11041gL6 C91S S96A gH5 D54E
B1 returned a dissociation constant Kd in assay [1] of 0.0125 nM. In assay [2], this molecule returned a Kd of 0.0125 nM and a kon of 1.01e+06 M⁻¹ s⁻¹.

B2: 11041gL1 C91V gH1 (Fab, V domains shown)
VH: EVQLVESGGGLVQPGGSLRLSCAVSGFSLSSYAMIWVRQAPGKGLEWIGIIDIDGSTYYASWAKGRFTISRDSSKNTVYLQMNSLRAEDTAVYYCARDRFVGVDIFDPWGQGTLVTVSS
VL: AVVLTQSPSSLSASVGDRVTITCQASEDIYTNLAWYQQKPGKAPKLLIYWASTLASGVPSRFSGSGSGTDFTLTISSLQPEDFATYYCQAVVYGNSADSRYTFGGGTKVEIK
notes: V-regions only; also called 11041gL3gH1
Consider B2, for which the “fold increase in binding affinity against 11041gL1gH1” value in assay [3] came out at 15 fold. This molecule registered a Kd in [1] of 0.0419 nM.

B3: 11041gL1 C91S gH1 (Fab, V domains shown)
VH: EVQLVESGGGLVQPGGSLRLSCAVSGFSLSSYAMIWVRQAPGKGLEWIGIIDIDGSTYYASWAKGRFTISRDSSKNTVYLQMNSLRAEDTAVYYCARDRFVGVDIFDPWGQGTLVTVSS
VL: AVVLTQSPSSLSASVGDRVTITCQASEDIYTNLAWYQQKPGKAPKLLIYWASTLASGVPSRFSGSGSGTDFTLTISSLQPEDFATYYCQASVYGNSADSRYTFGGGTKVEIK
notes: V-regions only; also called 11041gL2gH1
As for B3, the “fold increase in binding affinity against 11041gL1gH1” value in assay [3] came to 50 fold. This molecule also displayed an equilibrium dissociation constant (Kd) in [1] of 0.0124 nM.

B4: 11070 (Fab, V domains shown)
VH: EVQLQESGPGLVQPSQTLSPTCTVSGFSLTSYSVHWVRQHSGKSLEWMGRMWSDGDTSYNSAFTSRLSITRDTSKSQVFLKMNSLQTEDTGTYYCARSLDFYYDTTLAFWGPGTTVTVSS
VL: DIVMTQTPSNLAASPGESVSINCKASKTISKYLAWYQQKPGKANKLLIYSGSTLQSGTPSRFSGSGSSTDFTLTIRNLEPEDFGLYYCQQHNEYPLTFGSGTKLEIK
As to B4, in [4], the affinity, expressed as Kd, was 0.049 nM.

B5: IL13H/IL22K knob in hole bispecific (bispecific antibody, human IgG4 S228P, kappa)
heavy 1: not shown
light 1: AVQLTQSPSSLSASVGDRVTITCQASEDIYTNLAWYQQKPGKAPKLLIYWASTLASGVPSRFSGSGSGTDFTLTISSLQPEDFATYYCQASVYGNAADSRYTFGGGTKVEIKRTVAAPSVFIFPPSDEQLKSGTASVVCLLNNFYPREAKVQWKVDNALQSGNSQESVTEQDSKDSTYSLSSTLTLSKADYEKHKVYACEVTHQGLSSPVTKSFNRGEC
heavy 2: EVQLVQSGAEVKKPGSSVKVSCKASGYSFTSYYIHWVRQAPGQGLEWMGRIGPGSGDINYNEKFKGRATFTVDKSTSTAYMELSSLRSEDTAVYYCARFHYDGADWGQGTLVTVSSASTKGPSVFPLAPCSRSTSESTAALGCLVKDYFPEPVTVSWNSGALTSGVHTFPAVLQSSGLYSLSSVVTVPSSSLGTKTYTCNVDHKPSNTKVDKRVESKYGPPCPPCPAPEFLGGPSVFLFPPKPKDTLMISRTPEVTCVVVDVSQEDPEVQFNWYVDGVEVHNAKTKPREEQFNSTYRVVSVLTVLHQDWLNGKEYKCKVSNKGLPSSIEKTISKAKGQPREPQVYTLPPSQEEMTKNQVSLSCAVKGFYPSDIAVEWESNGQPENNYKTTPPVLDSDGSFFLVSRLTVDKSRWQEGNVFSCSVMHEALHNHYTQKSLSLSLGK
light 2: DIQMTQSPSSLSASVGDRVTITCKASQNINENLDWYQQKPGKAPKLLIYYTDILQTGIPSRFSGSGSGTDYTLTISSLQPEDFATYYCYQYYSGYTFGQGTKLEIKRTVAAPSVFIFPPSDEQLKSGTASVVCLLNNFYPREAKVQWKVDNALQSGNSQESVTEQDSKDSTYSLSSTLTLSKADYEKHKVYACEVTHQGLSSPVTKSFNRGEC
Take B5: the “IC50 (M) Geomean; IL22-induced IL-10 release, COLO205 cells; PB8919 (N = 2)” value in assay [5] was determined as 5.73e-11 M. In assay [6], the “IC50 (M) Geomean; IL22-induced IL-10 release, COLO205 cells; PB8842 (N = 2)” value was found to be 7.13e-11 M. Besides, in [7], the “IC50 (pM) Geomean, N = 2; STAT-6 reporter assay, HEK-Blue IL-4/IL13 cells; PB8842” value was found to be 4.9 pM; the “IC50 (pM), concatenated IC50 values; STAT-6 reporter assay; PB8842” value is 4.6 pM and 5.2 pM. Also, in [8], the “IC50 (pM) Geomean, N = 2; STAT-6 reporter assay, HEK-Blue IL-4/IL13 cells; PB8919” value came to 2.3 pM; the “IC50 (pM), concatenated IC50 values; STAT-6 reporter assay; PB8919” value was 2 pM and 2.7 pM. The “IC50 (read off the curve), inhibition of eotaxin-3 secretion, primary human keratinocytes stimulated with IL-13 and IL-22 at 100 ng/ml” value in assay [9] was approximately 0.8 nM.

B6: IL13K/IL22H knob in hole bispecific (bispecific antibody, human IgG4 S228P, kappa)
heavy 1: not shown
light 1: DIQMTQSPSSLSASVGDRVTITCKASQNINENLDWYQQKPGKAPKLLIYYTDILQTGIPSRFSGSGSGTDYTLTISSLQPEDFATYYCYQYYSGYTFGQGTKLEIKRTVAAPSVFIFPPSDEQLKSGTASVVCLLNNFYPREAKVQWKVDNALQSGNSQESVTEQDSKDSTYSLSSTLTLSKADYEKHKVYACEVTHQGLSSPVTKSFNRGEC
heavy 2: EVQLVESGGGLVQPGGSLRLSCAVSGFSLSSYAMIWVRQAPGKGLEWIGIIDIEGSTYYASWAKGRFTISRDNSKNTVYLQMNSLRAEDTAVYYCARDRFVGVDIFDPWGQGTLVTVSSASTKGPSVFPLAPCSRSTSESTAALGCLVKDYFPEPVTVSWNSGALTSGVHTFPAVLQSSGLYSLSSVVTVPSSSLGTKTYTCNVDHKPSNTKVDKRVESKYGPPCPPCPAPEFLGGPSVFLFPPKPKDTLMISRTPEVTCVVVDVSQEDPEVQFNWYVDGVEVHNAKTKPREEQFNSTYRVVSVLTVLHQDWLNGKEYKCKVSNKGLPSSIEKTISKAKGQPREPQVYTLPPSQEEMTKNQVSLSCAVKGFYPSDIAVEWESNGQPENNYKTTPPVLDSDGSFFLVSRLTVDKSRWQEGNVFSCSVMHEALHNHYTQKSLSLSLGK
light 2: AVQLTQSPSSLSASVGDRVTITCQASEDIYTNLAWYQQKPGKAPKLLIYWASTLASGVPSRFSGSGSGTDFTLTISSLQPEDFATYYCQASVYGNAADSRYTFGGGTKVEIKRTVAAPSVFIFPPSDEQLKSGTASVVCLLNNFYPREAKVQWKVDNALQSGNSQESVTEQDSKDSTYSLSSTLTLSKADYEKHKVYACEVTHQGLSSPVTKSFNRGEC
B6: in assay [10], the “IC50 (M) Geomean; IL22-induced IL-10 release, COLO205 cells; PB8920 (N = 2)” value was 6.38e-11 M. Further, the “IC50 (M) Geomean; IL22-induced IL-10 release, COLO205 cells; PB8841 (N = 2)” value in assay [11] turned out to be 6.59e-11 M. In assay [12], the “IC50 (pM) Geomean, N = 2; STAT-6 reporter assay, HEK-Blue IL-4/IL13 cells; PB8920” value stood at 2.9 pM; the “IC50 (pM), concatenated IC50 values; STAT-6 reporter assay; PB8920” value is 2.1 pM and 4 pM. In addition, in assay [13], the “IC50 (pM) Geomean, N = 2; STAT-6 reporter assay, HEK-Blue IL-4/IL13 cells; PB8841” value came to 3.4 pM. In [9], the “IC50 (read off the curve), inhibition of eotaxin-3 secretion, primary human keratinocytes stimulated with IL-13 and IL-22 at 100 ng/ml” value is approximately 5 nM.

B7: Rabbit 11041 Fab (Fab, V domains shown)
VH: QSVEESGGRLVTPGTPLTLTCTVSGFSLSSYAMIWVRQAPGEGLEWIGIIDIDGSTYYASWAKGRFTISRTSTTVDLKITSPTTGDTATYFCARDRFVGVDIFDPWGPGTLVTVSS
VL: AVVLTQTASPVSAPVGGTVTIKCQASEDIYTNLAWYQQKPGQPPKLLIYWASTLASGVPSRFKGSGSGTEFTLTISDLECADAATYYCQACVYGNSADSRYTFGGGTEVVVK
notes: Rabbit Fab
Turning to B7, the Kd in assay [14] was 0.34 nM; in [15], 1.1 nM; in assay [16], 3 nM. For the same molecule, the off-rate constant (koff) in assay [14] stood at 0.00029 s⁻¹; in assay [15] it was 0.00028 s⁻¹; in assay [16] it was 0.11 s⁻¹. Further, the kon is 870000 M⁻¹ s⁻¹ in [14], 260000 M⁻¹ s⁻¹ in assay [15] and 3.7e+07 M⁻¹ s⁻¹ in assay [16].

B8: 11041 (parental) (Fab, V domains shown)
VH: QSVEESGGRLVTPGTPLTLTCTVSGFSLSSYAMIWVRQAPGEGLEWIGIIDIDGSTYYASWAKGRFTISRTSTTVDLKITSPTTGDTATYFCARDRFVGVDIFDPWGPGTLVTVSS
VL: AVVLTQTASPVSAPVGGTVTIKCQASEDIYTNLAWYQQKPGQPPKLLIYWASTLASGVPSRFKGSGSGTEFTLTISDLECADAATYYCQACVYGNSADSRYTFGGGTEVVVK
The molecule B8 gave a dissociation constant (Kd) in [17] of 0.569 nM.

Usually Kd stands for the equilibrium constant for the complex coming apart. Read a low Kd as tighter binding. As usually defined, the kon is a measure of how fast the partners come together. A low value points to slower complex formation. One may read the koff as the first-order rate constant of dissociation. Read a high koff as a short-lived complex.

These data come from US20240067758A1 (UCB, published 2024).
